Source: publication PMC2925374, “Oligomerization of Uukuniemi virus nucleocapsid protein” (Virology Journal, 2010)
Residue numbers refer to the chain shown, from its start. In names and notes the source's numbering stands. Several values for one entry are separate records, joined by “and”; a condition that tells them apart may be missing. Equal values may be shown once.

B1: Uukuniemi virus nucleocapsid (N) protein, full-length wild type (pcDNA-UUKV-N) (natural protein)
chain: MAMPENWVRFAIEISDAQWEEEEIREFINLFQYQGFDAAVVLSRIFELAKKADLSRDQMLRDIRALITLHLTRGNKLSSIEKRLSEEGKKEFALLKARYQLVDKAKEAADLTLSRIAIANAGLTCRILPQVVAHTAVTRSRMESLSADYPVCMMHNAFAGLIDETLPEDSIKALVDAHRLYLLEFSRTINVKHRGMEAKEILDANDSALQAGLASSFLTPSQKRAYLLSFKLVDGNGKVNKAVQQAATVLRSLI
notes: Uukuniemi virus nucleocapsid (N) protein, 254 aa residues; No tag is mentioned; detected with a rabbit antiserum against UUKV-N; also called UUKV-N protein; wt N protein; source: COS-7, transfected (pcDNA-UUKV-N), in lysate
B2: UUKV-N protein point mutant I14A, mammalian two-hybrid fusions (natural protein)
chain: B1 chain with I14A
notes: Uukuniemi virus nucleocapsid (N) protein, 254 aa residues; Mutation introduced into both the DNA-BD and the DNA-AD fusion; no chain carries both domains; source: HeLa, transfected, mammalian two-hybrid fusions
B3: UUKV-N protein point mutant R251A, mammalian two-hybrid fusions (natural protein)
chain: B1 chain with R251A
notes: Uukuniemi virus nucleocapsid (N) protein, 254 aa residues; source: HeLa, transfected, mammalian two-hybrid fusions
B4: UUKV-N protein point mutant F27A, mammalian two-hybrid fusions (natural protein)
chain: B1 chain with F27A
notes: as for B2
B5: UUKV-N protein point mutant W7A, mammalian two-hybrid fusions (natural protein)
chain: B1 chain with W7A
notes: as for B2
B6: UUKV-N protein point mutant F10A, mammalian two-hybrid fusions (natural protein)
chain: B1 chain with F10A
notes: as for B2
B7: UUKV-N protein point mutant W19A, mammalian two-hybrid fusions (natural protein)
chain: B1 chain with W19A
notes: as for B2
B8: UUKV-N protein point mutant F31A, mammalian two-hybrid fusions (natural protein)
chain: B1 chain with F31A
notes: as for B2
B9: UUKV-N protein double mutant QQ244,245AA, mammalian two-hybrid fusions (natural protein)
chain: B1 chain with Q244A, Q245A
notes: as for B3
B10: UUKV-N protein point mutant Y33A, mammalian two-hybrid fusions (natural protein)
chain: B1 chain with Y33A
notes: Uukuniemi virus nucleocapsid (N) protein, 254 aa residues; Mutation introduced into both the DNA-BD and the DNA-AD fusion; no chain carries both domains; also called negative control mutant; source: HeLa, transfected, mammalian two-hybrid fusions
B11: UUKV-N protein point mutant I24A, mammalian two-hybrid fusions (natural protein)
chain: B1 chain with I24A
notes: as for B2

Key:
[1] = molecular target: the molecule itself; experiment: cross-linking; lysates of transfected COS-7 cells (PBS pH 7.4, freeze-thawed), 0.1 or 0.5 mM BS3, 30 min at room temperature, quenched with 50 mM Tris-HCl pH 7.5; 10% SDS-PAGE, immunoblot with rabbit antiserum against UUKV-N
[2] = molecular target: the molecule itself; experiment: two-hybrid; mammalian two-hybrid in HeLa cells: GAL4 DNA-BD (pM) and VP16 DNA-AD (pVP) fusions, pG5luc firefly luciferase normalised to Renilla luciferase, 24 h post-transfection; percent of the wt N-N interaction

Protein | stoichiometry N [1] | M2H % of interaction [2] [%]
B1 | 2 and 3 | –
B2 | – | 60 ± 18
B3 | – | 96 ± 11
B4 | – | > 100
B5 | – | > 100
B6 | – | 34 ± 4
B7 | – | > 100
B8 | – | 23 ± 5
B9 | – | > 100
B10 | – | > 100
B11 | – | 56 ± 12
